# Earlier results in patent US9333241B2, “Thyroid-stimulating hormone receptor polypeptide agonist glycoforms to treat metabolic syndrome” (LipoLytics Therapeutics, LLC, priority 2005, dated 2016).
# What was measured:
# [1] = system: rodent models of the metabolic syndrome; conditions: recombinant glycoproteins produced in CHO cells
# human TSHR = target: T1, human TSHR (Homo sapiens, UniProt P16473); conditions: human TSHR transfected into CHO cells
# T1 construct: expressed in transfected cells; host or cells: CHO cells
# T1 sequence (P16473 21-764): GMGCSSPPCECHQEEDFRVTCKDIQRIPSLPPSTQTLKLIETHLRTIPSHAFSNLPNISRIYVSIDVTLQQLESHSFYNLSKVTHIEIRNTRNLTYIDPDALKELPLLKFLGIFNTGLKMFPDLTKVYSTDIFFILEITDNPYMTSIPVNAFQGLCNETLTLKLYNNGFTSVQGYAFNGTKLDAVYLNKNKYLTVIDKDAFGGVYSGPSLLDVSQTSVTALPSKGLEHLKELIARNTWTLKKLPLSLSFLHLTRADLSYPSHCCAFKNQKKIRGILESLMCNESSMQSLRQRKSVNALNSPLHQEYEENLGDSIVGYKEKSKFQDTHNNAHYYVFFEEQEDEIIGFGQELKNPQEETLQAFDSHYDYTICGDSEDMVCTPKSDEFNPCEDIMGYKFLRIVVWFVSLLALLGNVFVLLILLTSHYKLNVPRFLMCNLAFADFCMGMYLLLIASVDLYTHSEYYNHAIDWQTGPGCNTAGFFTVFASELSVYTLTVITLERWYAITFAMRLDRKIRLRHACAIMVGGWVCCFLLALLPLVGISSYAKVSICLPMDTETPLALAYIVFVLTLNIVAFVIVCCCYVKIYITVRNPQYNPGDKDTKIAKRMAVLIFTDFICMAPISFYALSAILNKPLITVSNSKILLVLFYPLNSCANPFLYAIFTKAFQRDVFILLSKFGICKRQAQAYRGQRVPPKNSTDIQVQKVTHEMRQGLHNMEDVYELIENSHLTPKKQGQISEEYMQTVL
molecule,measurement,setting,value
"CGH: heterodimeric glycoprotein of GPHA2 and GPHB5 subunits, produced recombinantly in CHO cells (protein, listed as Homo sapiens) alpha: QEAVIPGCHLHPFNVTVRSDRQGTCQGSHVAQACVGHCESSAFPSRYSVLVASGYRHNITSVSQCCTISGLKKVKVQLQCVGSRREELEIFTARACQCDMCRLSRY beta: ASSGNLRTFVGCAVREFTFLAKKPGCRGLRITTDACWGRCETWEKPILEPPYIEAHHRVCTYNETKQVTVKLPNCAPGVDPFYTYPVAIRCDCGACSTATTECETI",effect of treatment in rodents,[1],improved glucose and lipid profiles and in reversed liver steatosis
same,activation of human TSHR,human TSHR,potently activates
